Data reported in the supplement of paper PMC12042874.
± gives the uncertainty stated by the source.

Assay: amyloid nucleation score (Sup35N fusion, yeast selection) (log enrichment); library NNK2; higher = more nucleation; inactive = no reads after selection
Outline: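 Nucleation score: DiMSum log enrichment of output over input reads, centred on the mode score of non-aggregating sequences. Only sequences with at least 100 input reads were kept. Reads came from Illumina sequencing of plasmid inserts before and after 7 days of growth at 30°C without adenine and uracil, in psi-negative yeast expressing Sup35N fused to peptides of 20 random codons after 24 hours of induction with 100 μM copper sulfate.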

In order of rising amyloid nucleation score:
1. FYVRGGCI  -2.22 ± 0.76
2. DVETL  -1.24 ± 0.41
3. VWMYITSW  -1.12 ± 0.55
4. NRNKAASYNGLYCFDPAIVD  -1.09 ± 0.55
5. HLASFFSSVSYSSDLAYSGT  -1.02 ± 0.78
6. SMAFREILLLMGSMLSCIRS  -0.956 ± 1
7. ARIAETSRYKRSENSLSLV  -0.88 ± 0.76
8. SVQSSWLNLLAVYIVFCCQR  -0.833 ± 0.54
9. PRGEFTWWSLGIIPNRWQCR  -0.771 ± 1.1
10. DHRLYQSFKALRVPSVVLRG  -0.766 ± 0.79
11. NHSGRYGRRLILRLGFFGVG  -0.655 ± 0.28
12. YDHDLINRKITSGHKVYFIG  -0.586 ± 0.49
13. RCREWYMR  -0.568 ± 0.63
14. EVMCMSRYDPR  -0.557 ± 1.1
15. HWWLVIAMNRLGCFGEFMMR  -0.547 ± 0.63
16. KRSLLQKLCC  -0.421 ± 0.61
17. CGATQHSGTQVDLKLGFI  -0.321 ± 1.1
18. ILFGIPN  -0.314 ± 0.24
19. FSFYLTQSKSALIIDVAQRI  -0.231 ± 0.49
20. KQLMRGIWDRG  -0.217 ± 0.79
21. LMPDSCSNPRWKTEVLTIRG  -0.199 ± 1.1
22. PVNPQEFLSALSSRYEVKSW  -0.095 ± 1.1
23. NGCSFRGNCCDSGERNVVEV  0.071 ± 0.6
24. QCGMIMRSSLKSGATCFLDS  0.124 ± 0.61
25. FKGVCCMHNELASIDQWVGG  0.192 ± 0.56
26. SCCEGISSVNNLFMRRRGIE  0.201 ± 0.53
27. RVFRCYRIIYMVMI  0.204 ± 0.19
28. NGTSLTMTYIRKLAFRGLEK  0.215 ± 0.26
29. DSCCMSYSRQNCTY  0.218 ± 0.8
30. EYEYGGYNSMNLNYIVARSE  0.218 ± 0.48
31. QLYKRSE  0.256 ± 0.27
32. MSVLSMVFSGFDPMERFGEL  0.294 ± 0.8
33. WDLLRVM  0.312 ± 0.8
34. RNALDTDAAE  0.323 ± 0.55
35. CPLRLTRGLKCRVYINWEHQ  0.354 ± 0.48
36. VRDFCRWASDVRCSNGWRVA  0.384 ± 0.65
37. VHLPCGYLKFRGLMYWRREL  0.479 ± 0.34
38. EVERGIN  0.62 ± 0.56
39. VSYPVCMGKWHGSTRILNRH  0.669 ± 0.27
40. LRRKEVKWLCL  0.754 ± 0.47
41. GAGLRCLFGNSGYGERCVTM  0.82 ± 0.44
42. KSLYIGSAY  1 ± 0.42
43. DHLYMYWGAQ  1.02 ± 0.37
44. YSIYEYG  1.41 ± 0.15
45. TRLLIVDFNIFSIEIVHLMS  2.41 ± 0.071
46. KVAFKIALKSSTIWFIDS  2.47 ± 0.13
47. TCVVMAKGKLVVPVQEYPCV  2.62 ± 0.11
48. RFKWK  3.67 ± 0.11
49. GTFKDGMDSA  3.75 ± 0.14
50. GLLTGITILIVVDSCLGVCF  3.99 ± 0.095
51. YVFSIYGPFLLVEGLSTPFR  4.49 ± 0.095
52. YLDAHILHE  4.54 ± 0.087
53. GNVGTRPQINTGSVCYMSCI  4.6 ± 0.057
54. FSNIVNCSDRCATCVYFEFV  4.808 ± 0.047
55. SDEIECCKYFFGYL  5.347 ± 0.047
56. STVPRVSLLLAPCQVIVAWE  5.449 ± 0.05
57. SREYDCYLWRNLVWNCWMNW  5.638 ± 0.048
58. IVWLMHSSSHRT  5.79 ± 0.076
59. ECDYRTLSLNMVLNYCRKGG  5.955 ± 0.046
60. GNIMSFSFMPDLGISFCPGC  6.515 ± 0.049
61. LSTCCVKVVVCRDFIIVDKF  6.57 ± 0.039
62. CMWLLMTHPHKVTIMQ  7.262 ± 0.061
63. SLFQCNGSCVIYSYGILLYL  7.71 ± 0.082
64. RSKDYVFFCFSCTNWLC  8 ± 0.082
65. AMTVSWWCCLMYVDMG  10.59 ± 0.037

For KIVSWAMIIARVVYCDQDL, the amyloid nucleation score was “inactive”.
With RTLFSRFYRRSMFNLSVKKK the amyloid nucleation score was “inactive”.
In the case of GGERMRSRKYEYGGWNMCYY, the amyloid nucleation score is reported as “inactive”.
For FRKSFHIYIVELYMDDHPLM, the amyloid nucleation score was “inactive”.
In the case of DSGFFWCV, the amyloid nucleation score is reported as “inactive”.
For LKSKVTLSYYSIVPAISVYE, the amyloid nucleation score was “inactive”.
